Test: yeast display, Sf9 membrane polyspecificity reagent, FACS + sequencing; frameworks hold sequencing errors
Method in brief: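 After 36–48 hours of galactose induction, yeast (Saccharomyces cerevisiae BJ5465) displaying a synthetic nanobody library were stained at 4 °C for 1 hour with 10% biotinylated, detergent-solubilized Sf9 membrane reagent. Streptavidin microbeads enriched the stained cells before FACS sorting into low and high (top ~1%) gates on anti-HA and streptavidin fluorescence. Each clone's polyreactivity label reflects its gate of origin.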

| Sequence | polyreactivity (PSR sort gate) |
| --- | --- |
| QVQLVESRGGLVQAGGSLRLSCAASGRTFGRYAMGWYRQAPGKERELVAAINRGGSTKYADSVKGRFTISRDNAKNTVYLQMNSLKPEDTAVYYCAKDRHPALHYDYWGQGTQVTVSS | low polyreactivity |
| QLQLVESGGGLVQAGGSLRLSCAASGRTFWYYTMGWYRQAPGKERELVAAISSGGRTNYADSVKGRFTISLDNAKNTVYLQMNSLKPEDTAVYYCATSRYYKYVERDYWGQGTLVTVSS | high polyreactivity |
| QVQLVESGGGLVQAGGSLRLSCAASGSIFDGNAMGWYRQAPGKERDLVAANTKNDGTTYYADSVKGRFTISRDNAKNTVYLQMNSLKQEDTAVYYCAAESVYQVYTYVSSGDYWGQGTQVTVSS | low polyreactivity |
| QVQLVESGGGLVQAGGSLRLSCAASGRIFSTYAMGWYRQAPGKERELVAAISYSGTTTYYADSVKGRFTISRDNAKNTVYLQMNSLKPEDTAVYYCAAYRYSTWSYGRDYYWGQGTQVTVSS | high polyreactivity |
| QVQLVESGGGLVQAGGSLRLSCASSGSIFGGNAMGWYRQAPGKERELVAAITQSGDRTYYADSVKGRFTISRDNAKNTVYLQMNSLKPEDTAVYYCAARSPRKYGSIGYYWGQGTEVTVSS | high polyreactivity |
| QVQLVESGGGLVQAGGSLRLSCAASGSIFNLNAMGWYRQAPGKERELVASISSDGSTYYADSVKGRFTISRDNAKNTVYLQMNSLKPEDTAVYYCNADSQWAFKQLSFDYWGQGTQVTVSS | low polyreactivity |
| QVQLVESGGGLVQAGGSLRLSCAASGGTFGRYAMGWYRQAPGKERELVADINWSGGGTYYADSVKGRFTISRDNAKNTVYLQMNSLKPEDTAVYYCGARVVEIFHWAGDYWGQGTQVTVSS | low polyreactivity |
| QVQLVESGGGLVQAGGSLRLSCAASGRIFTYNAMGWYRQAPGKERELDATITWRGGGTYYADSVKGRFTISRDNAKNTVYLQMNSLKPEDTAVYYCNRRLPGDGQYGYRRYDYWGQGTQVTVSS | low polyreactivity |
| QVQLVESGGGLVQAGGSLRLSCAASGSTFDSNVMGWYRQAPGKERELVAVINGSGSNTYYADSVKGRFTISRDNAKNTVYLQMNSLKPEDTAVYYCAVERSVYSYYYWGQGTQVTVSS | high polyreactivity |
| QVQLVESGGGLVQAGGSLRLSCAASGSTFTNYAMGWYRQAPGKERELLAAINNDRTNYADSVKGRFTISRDNAMNTVYLQMNSLKPEDTAVYYCAARLGGRRRFGYWGQGTQVTVSS | high polyreactivity |
| QVHHVESGGGLVQAGGSLRLSCAASGRIFYPYAMGWYRQAPGKERELVASITSGGGTYYADSVKGRFTISRDNAKNTVYLQMNSLKPEDTAVYYCAAKYYTSWIRYDYWGQGTQVTVSS | low polyreactivity |
| QVQLVESGGGLVQAGGSLRLSCAASGFISAYYAMGWYRQAPGKEMELVAAISWNGGRTFYADSVKGRFTISRDNAKNTVYLQMNSLKPEDTAVYYCAARYNGYANPYYYWGQGTQVTVSS | high polyreactivity |
| QVQLVESGGGLVQAGGSLRLSCAASGNTFLYYAMGWYRQAPGKEMELVASINLSDGSTYYADSVKGRFTISRDNAKNTVYLQMNSLKPEDTAVYYCAAVYGGYTIYDYWGQGTQVTVSS | low polyreactivity |
| QVQLVESGGGLVQAGGSLRLSCAASGRIFSIYAMGWYRQAPGKERELVAAISKRGGSTSYADSVKGRFTISRDNAKNTVYLQMNSLKPEDTAVYYCNARGWIPARGWDDYYWGQGTQVTVSS | high polyreactivity |
| QVQLVESGGGLVQAGGSLRLSCAASGSNFVLYAMGWYRQAPGKESELVAAISSSGGSTYADSVKGRFTISRDNAKNTVYLQMNSLKPEDTAVYYCARDVYLSDPPRDYDYWGQGTQVTVSS | low polyreactivity |
| QVQLVESGGGLVQAGGSLRLSSAASGFIFRRYAMGWYRQAPGKERELVAAISGSGGRTYYADSVKGRFTISRDNAKNSVYLQMNSLKPEDTAVYYCAADQGSLLYDYWGQGTKVTVSS | high polyreactivity |
| QVQLVESGGGLVQAGGSLRLSCAASGRTFRGYAMGWYRQAPGKERELVAGISRSGGSTYYADSVKGRFTISRDNAKNTVYLQMNSLKPEDTAVYYCNAVPIYYAWRRNKPFDYWGQGTQVTVSS | low polyreactivity |
| QVQLVESGGGLVQAGGILRLICAASGITFVSYGMVWYRQAPRKERELVAAITRSGGSTYYADSVKGRFTISRDNAKNTVYLQMNSLKPDDTAVYYCNARTRYASKGGGARWDSYGYWGQGTQVTVSS | high polyreactivity |
| QVQLVESGGGLVQAGGSLRLSCAASGITLYGYVMGWYRQAPGKERELVAAISASGGRTHYADSVKGRFTISRDNAKNTVYLQMNSLKPEDTAVYYCARAGSRSPGGYDYWGQGTQVTVSS | high polyreactivity |
| QVQLVESGGGLVQAGGSLRLSCAASGRTFTTYAMGWYRQAPGKERELVAAITSGGSTNYADSVKGRFTISRDNAKNTVYLQMNSLKPEDTAVYYCAARFRVYTYSQRHWREFGYWGQGTQVTVSS | high polyreactivity |
| QVQLQESGGGLVQAGGSLRMSCAASGSIFYVYGMGWYRQAPGKERELVAGINAGTNTNYADSVRGRFTISRDNAKNTVHLQMKSLKPEDTAVYYCAADGNGYQADEYWGQGTQVTVSS | high polyreactivity |
| QVQLVESGGGLVQAGGSLRLSCAASGSTFAANAMGWYRQAPGKERELFAVIRRGGSTTYADSVKGRFTISRDNAKNTVYLQMNSLKPEDTEVYYCNARVTLGRPLFTYLVRYEYWGQGTQVTVSS | high polyreactivity |

| Sequence | polyreactivity (PSR sort gate) |
| --- | --- |
| QVQLVESGGGLVQAGGSLRLSCADSGSTFDSYAMGWYRQAPGKERELVASITSRGGRTYYADSVKGRFTISRDNAKNTVYLQMNSLKPEDTALYYCNAYRRNYYYYQRHGYWGQGTQVTVSS | high polyreactivity |
| QVQLVESGGGLVQAGGSLRLSCAASGRIFQGYAKGWYRQAPGKEREFVAAITASGGTTYYADSVKGRFTISRDNAKNTVYLQMNSLKPEDTAVYYCAKYRYTVAGYNYWGQGTQVTVSS | high polyreactivity |
| QVQIVESGRGLVQAGGSLRVSCAASGRTFTYNAMGWYRQAPGKERELVAAINGDGGSTYYADSVKVRFTISRDNAKNTVYLQMNSLKPEDTAVYYCNRPRIYRYGYWGQGTQVTVSS | high polyreactivity |
| QVQLVESGGGLVQAGGSLRLSCAASGTFYYYAMGWYRPAPGKERELVAAIDYSGGSTYYADSVKGRFTISRDNAKNTVYLQMNSLKPEDTAVYYCAYVSVYDFEYWGQGTQVTVSS | high polyreactivity |
| QVHLVESGGGLVQAGGSLRLSCAASGRTFYSYTMAWYRQAPGKERELVAAINRGGSTYYADSVKGRFTISRDKAKNTVYLQMNSLKEEDTAVYYFAVGYAHSSNRRYYYQKTHGYWGQGTQVTVSS | low polyreactivity |
| QVQLVESGGGLVQAGGSLRLSCAASGSTSTDYAMGWYRQAPGKERELVAAISYGGGSTYYADSVKGRFTISRDNAKNTVYLQMNSLKPEDTAVYYCAAVARFPKYRYYSWGQGTQVTVSS | high polyreactivity |
| QVQLVESGGGLVQAGGSLRLSCADSGRIFRDYAMGWYRQAPGKERELVAAISRSGGSTYYADSVKGRFTISRDNAKNTVYLQVNSLKPEDTAVFYCAAKYYYGGNGYWGQGTQVTVSS | low polyreactivity |
| QVQLVESGVGLVQAGCSHRLSCAASGSTISAYDMGSYRQAPGKERELVAAITWIGGNTYYADSVKGRFTISRDNAKNTVYLQMNSLKPEDTAVYYCAAEEVPYDRDMDYWGQGTQVTVSS | low polyreactivity |
| QVQLVESGGGLVKAGGSLRLSCAASGIIFSFYTMGWYRQAPGKQRELVAAITWSGGSTYYADSVKGRFTISRDNAKNTVYLQMNSLKPEDTAVYFCNARYPWRKRSQGYSWGQGTQVTVSS | low polyreactivity |
| QVQLVESGGGLVQAGGSLRLTCAASGRTFSTYVMGWYRQAPGKEREFVAAISTGGGSTYYADSVKGRFTISRDNAKNTVYLQMNSLKPEDTAVYYCAAKRKIRGYGPYEFWGQGTQVTVSS | high polyreactivity |
| QVQLVESGGGLVQAGGSLRLSCAASGNTFWRYTMGWYRQAPGKERELVAAISSSGGSTYYADSVKGRFTISRDNAKNTVYLQMNSLKPEDTAVYYCAAERRLYKIFSYGYWGQGTQVTVSS | high polyreactivity |
| QVQLVESGGGLVQAGGSLRLSCAASRSIFSIYAMGWYRQAPGKERELVAAITWGGGSTYYADSVKGRFTISRDNAKNTVYLQMNSLKPEDTALYYCAADSLTWYGTYYYWGQGTQVTVSS | high polyreactivity |
| QVQLVESGGGLVQAGGSLRLSCAASGNIFSWYAMGWYRQAPGKERELVAAITSGGRTYYADSVKGRFTISRDNAKNTVYLQMNSLKPEDTAVYYCNALRRRQYHDDYWGQGTQVTVSS | high polyreactivity |
| QVQLLESGGGLVQAGGSLRLSCDASGFTFVAYAMGWYRQAPGKERELVAVISRGGSTYYADSVKGRFTISRDNAKNTVYLQMNSLKPEDTAVYYCAATFIHSYGKFFYWGQGTQVTLSS | low polyreactivity |
| QVQLVESGGGLVQAGGSLRLSCAASGSTLASYAMGWYRQAPGKERELVAAISSSGGSTYYADSVKGRFTISRDNAKNTVYLQMNSLKPEDTAVYYCAARTRTRYGIDYYWGQGTQVTVSS | high polyreactivity |
| QVQLVESGGGLDQAGGSLRLSCAASGSTFRNNAMGWYRQAPGKERELVAAISRGGGSTYYADSVKGRFTISRDNAKNNVYLQMTSLKQDDTAVYDCARRPTGIYDYWGQGTQVTVSS | high polyreactivity |
| QVQLVESGGGLVQAGGSLRLSCAASGSTFRRNAMGWYRQAPGKERELVAAITVSGGSTYYADSVKGRFTISRDNAKNTVYLQMNSLKPEDTAVYYCAAEPSQYSWYTTYYYWGQGTQVTVSS | high polyreactivity |
| QVQLVESGGGLVQAGGSLRLSCAASGFISPPYAMGWYRQAPGKERELVAAIRSSGGSTYYADSVKGRFTISRDNPKNTVYLQMNSLKPEDTAVYYCNADWIYISSYGWYSYDYWGQGTQVTVSS | high polyreactivity |
| QVQLVESGGGLVQAGGSLRLSCAASGNIFKYYTMGWYRQAPGKERELVAAITSGGRTNYADSVKGRFTISRDNAKNTVYLQMNSLKPEDTAVYYCAAYDVIYSQGFDYWGQGTQVTVSS | low polyreactivity |
| QVQLVESGGGLVQAGGSLRISCAASGRTFYRNAMGWNSKAPGKERELVAAIRRSDGSTYYADSVKGRFTISRDNAKNTVYLQMNSLKPEDTAVYYCAAGQGSRNLYYYWGQGTQVTVSS | high polyreactivity |
| QVQLVESGVGLDQARVSLRLSCAASGFTFGQYVMGWYRQAPGKEREFVAIISRSVDSTYYADSVKGRFTISRDNAKNTVYLQMNSLNPEDTAVYYCNARGKRRGKIPYSSYASSYDSWGQGTQVTVSS | high polyreactivity |
